These are literature values, as cited in article PMC5399307.

For this data set, the target named is ezrin FERM (Homo sapiens) (UniProt P15311).
Sequence of UniProt P15311 (P15311 1-299): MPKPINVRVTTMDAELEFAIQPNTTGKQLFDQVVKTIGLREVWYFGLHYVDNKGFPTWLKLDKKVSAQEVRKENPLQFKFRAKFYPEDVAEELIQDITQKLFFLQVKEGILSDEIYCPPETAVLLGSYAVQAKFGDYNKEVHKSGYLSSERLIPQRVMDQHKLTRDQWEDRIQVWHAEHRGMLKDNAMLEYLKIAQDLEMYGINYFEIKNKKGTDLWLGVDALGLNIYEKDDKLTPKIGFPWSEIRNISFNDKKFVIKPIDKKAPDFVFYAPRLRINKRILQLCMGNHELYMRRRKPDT

Turning to NHERF1 (from UniProt O14745), the Kd is 51 nM.
